Data as given in US8946384.

Tests used:
[1] = target: T1, recombinant type-2 Shiga toxin (Stx2) holotoxin (E. coli EHEC O157: H7), P09385
T1 chain 1: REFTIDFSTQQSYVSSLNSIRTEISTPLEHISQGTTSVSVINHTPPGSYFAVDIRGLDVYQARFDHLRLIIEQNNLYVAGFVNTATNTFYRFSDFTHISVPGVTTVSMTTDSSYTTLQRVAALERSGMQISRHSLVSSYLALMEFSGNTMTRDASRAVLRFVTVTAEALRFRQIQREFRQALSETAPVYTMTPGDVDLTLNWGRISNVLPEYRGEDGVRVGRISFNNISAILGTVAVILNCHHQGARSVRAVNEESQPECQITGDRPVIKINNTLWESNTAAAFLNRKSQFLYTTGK
T1 chain 2: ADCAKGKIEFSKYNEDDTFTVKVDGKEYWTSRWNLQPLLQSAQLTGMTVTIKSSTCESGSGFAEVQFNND

[2] = target: T2, recombinant Stx2B (B subunit of type-2 Shiga toxin) (E. coli EHEC O157: H7), P09386
T2 chain: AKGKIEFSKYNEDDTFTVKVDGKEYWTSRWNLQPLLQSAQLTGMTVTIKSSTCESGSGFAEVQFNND

Binder	Kd [1]	percent of HeLa cells showing fluorescence [2]	percent of binding between FITC-Stx2B and HeLa cells blocked [2]	blocking rate of binding between FITC-Stx2B and HeLa cells [2]
TFNMWLPTFNQW (modifications not checked) [polypeptide TF1]	1.25 µM	52.8%	45.7%	
WAPWYSFTSYHL (modifications not checked) [polypeptide WA8]	24.8 µM			24.8%
